Biological target: full-length α-synuclein (UniProt P37840 1-140)
Test: NMR; segment 1 (Seg-1)

Kd: 750 µM
B1: protein disulfide isomerase (enzyme)
chain: not shown
